Assay results from patent US20140065163A1 (MERCK SERONO S A, published 2014).
Like-named read-outs stand apart in the source and are kept apart here.

T1: macaca GM-CSF (Macaca mulatta (identical in Macaca …, UniProt Q0MUT8 18-144 (Chlorocebus aethiops entry), limits assumed))
T1 chain: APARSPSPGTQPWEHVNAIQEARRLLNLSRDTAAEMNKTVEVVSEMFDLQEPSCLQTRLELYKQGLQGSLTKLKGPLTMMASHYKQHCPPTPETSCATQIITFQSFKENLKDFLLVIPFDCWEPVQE


Tests used:
human GM-CSF A117 mutant = molecular target: T2, human GM-CSF A117 mutant (human, UniProt P04141 18-144); assay: competition ELISA: antibody on coated wild-type human GM-CSF, competitor soluble human GM-CSF A117; single condition, competitor concentration not shown
T2 construct: also called hGM-CSF A117; A117 protein

human GM-CSF T117 [1] = molecular target: T3, human GM-CSF T117 (human, UniProt P04141 18-144); assay: cell-based or functional assay
Target sequence in this assay (P04141 18-144 I117T limits assumed): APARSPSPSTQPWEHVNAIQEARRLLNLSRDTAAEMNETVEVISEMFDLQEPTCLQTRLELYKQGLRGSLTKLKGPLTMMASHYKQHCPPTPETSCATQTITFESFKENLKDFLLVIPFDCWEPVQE

macaca GM-CSF [2] = molecular target: T1, macaca GM-CSF; assay: cell-based or functional assay
human GM-CSF I117 [3] = molecular target: T4, human GM-CSF I117 (human, UniProt P04141 18-144); assay: cell-based or functional assay
Target sequence in this assay (P04141 18-144 limits assumed): as the sequence (P04141 18-144 I117T limits assumed) above, with T100I counted along it

human GM-CSF T117 [4] = molecular target: T3, human GM-CSF T117; assay: cell-based or functional assay; remark: listed apart in the source
macaca GM-CSF [5] = molecular target: T1, macaca GM-CSF; assay: cell-based or functional assay
human GM-CSF I117 [6] = molecular target: T4, human GM-CSF I117; assay: cell-based or functional assay; remark: listed apart in the source
human GM-CSF T117 [7] = molecular target: T3, human GM-CSF T117; assay: cell-based or functional assay; remark: listed apart in the source
macaca GM-CSF [8] = molecular target: T1, macaca GM-CSF; assay: cell-based or functional assay
human GM-CSF I117 [9] = molecular target: T4, human GM-CSF I117; assay: cell-based or functional assay; remark: listed apart in the source

Row | Binder | binding result (human GM-CSF A117 mutant) | Fold human T117/I117 (IC50, TF-1 proliferation) (human GM-CSF T117 [1]) [fold] | Fold improvement of 4K21 H93Y alone on T117 (IC50, TF-1 proliferation) (human GM-CSF T117 [1]) [fold] | Fold improvement of humanized parental 4K21 on T117 (IC50, TF-1 proliferation) (human GM-CSF T117 [1]) [fold] | IC50, inhibition of GM-CSF induced TF-1 proliferation (32 pM GM-CSF) (human GM-CSF T117 [1]) [pM] | Fold improvement of 4K21 H93Y alone on macaca (IC50, TF-1 proliferation) (macaca GM-CSF [2]) [fold] | Fold improvement of humanized parental 4K21 on macaca (IC50, TF-1 proliferation) (macaca GM-CSF [2]) [fold] | Fold macaca/human I117 (IC50, TF-1 proliferation) (macaca GM-CSF [2]) [fold] | IC50, inhibition of GM-CSF induced TF-1 proliferation (32 pM GM-CSF) (macaca GM-CSF [2]) [pM] | Fold improvement of 4K21 H93Y alone on I117 (IC50, TF-1 proliferation) (human GM-CSF I117 [3]) [fold] | Fold improvement of humanized parental 4K21 on I117 (IC50, TF-1 proliferation) (human GM-CSF I117 [3]) [fold] | IC50, inhibition of GM-CSF induced TF-1 proliferation (32 pM GM-CSF) (human GM-CSF I117 [3]) [pM] | also measured
1 | MSB0010600 4K21 (4K21 hVH S55R-T62S hVL S27eY-N28I-H34S-N53R-H93Y) (antibody, V domains shown) VH: EVQLVESGGGLVQPGGSLRLSCAASGFAFSAYDMSWVRQAPGKRLELVAYISSGGRSFYYPDSVKGRFTISRDNAKNSLYLQMNSLRAEDTAVYYCTRHLGFDYWGQGTLVTVSS VL: DIVMTQSPLSLPVTPGEPASISCRSSQSLVNYIGNTYLSWYLQKPGQSPQLLIYKVSRRFSGVPDRFSGSGSGTDFTLKISRVEAEDVGVYYCSQSTYVPPTFGQGTKVEIK |  | 1.4 | 3.6 | 30 | 47 | 2.6 | 21 | 1.1 | 37 | 0.9 | 3.6 | 33 | 
2 | MSB0010595 4K21 (4K21 hVH S56V-T62S hVL S27eY-N28I-H34S-N53R-H93Y) (antibody, V domains shown) VH: EVQLVESGGGLVQPGGSLRLSCAASGFAFSAYDMSWVRQAPGKRLELVAYISSGGSVFYYPDSVKGRFTISRDNAKNSLYLQMNSLRAEDTAVYYCTRHLGFDYWGQGTLVTVSS VL: DIVMTQSPLSLPVTPGEPASISCRSSQSLVNYIGNTYLSWYLQKPGQSPQLLIYKVSRRFSGVPDRFSGSGSGTDFTLKISRVEAEDVGVYYCSQSTYVPPTFGQGTKVEIK |  | 1.2 | 3.7 | 30 | 46 | 2.2 | 18 | 1.2 | 44 | 0.8 | 3.2 | 37 | 
3 | MSB0010602 4K21 (4K21 hVH S55K-T62S hVL S27eY-N28I-H34S-N53R-H93Y) (antibody, V domains shown, IgG) VH: EVQLVESGGGLVQPGGSLRLSCAASGFAFSAYDMSWVRQAPGKRLELVAYISSGGKSFYYPDSVKGRFTISRDNAKNSLYLQMNSLRAEDTAVYYCTRHLGFDYWGQGTLVTVSS VL: DIVMTQSPLSLPVTPGEPASISCRSSQSLVNYIGNTYLSWYLQKPGQSPQLLIYKVSRRFSGVPDRFSGSGSGTDFTLKISRVEAEDVGVYYCSQSTYVPPTFGQGTKVEIK | binds | 1.7 | 5 | 41 | 34 | 4 | 33 | 1.2 | 24 | 1.5 | 6 | 20 | IC50, inhibition of GM-CSF induced IL-8 secretion in U937 cells (65 pM GM-CSF) (human GM-CSF T117 [7]): 177 pM; IC50, inhibition of GM-CSF induced IL-8 secretion in U937 cells (65 pM GM-CSF) (macaca GM-CSF [8]): 232 pM; IC50, inhibition of GM-CSF induced IL-8 secretion in U937 cells (65 pM GM-CSF) (human GM-CSF I117 [9]): 267 pM

Now from value to binder, other results behind:

Row | binding result (human GM-CSF A117 mutant) | Fold human T117/I117 (IC50, TF-1 proliferation) (human GM-CSF T117 [1]) [fold] | Fold improvement of 4K21 H93Y alone on T117 (IC50, TF-1 proliferation) (human GM-CSF T117 [1]) [fold] | Fold improvement of humanized parental 4K21 on T117 (IC50, TF-1 proliferation) (human GM-CSF T117 [1]) [fold] | IC50, inhibition of GM-CSF induced TF-1 proliferation (32 pM GM-CSF) (human GM-CSF T117 [1]) [pM] | Fold improvement of 4K21 H93Y alone on macaca (IC50, TF-1 proliferation) (macaca GM-CSF [2]) [fold] | Fold improvement of humanized parental 4K21 on macaca (IC50, TF-1 proliferation) (macaca GM-CSF [2]) [fold] | Fold macaca/human I117 (IC50, TF-1 proliferation) (macaca GM-CSF [2]) [fold] | IC50, inhibition of GM-CSF induced TF-1 proliferation (32 pM GM-CSF) (macaca GM-CSF [2]) [pM] | Fold improvement of 4K21 H93Y alone on I117 (IC50, TF-1 proliferation) (human GM-CSF I117 [3]) [fold] | Fold improvement of humanized parental 4K21 on I117 (IC50, TF-1 proliferation) (human GM-CSF I117 [3]) [fold] | IC50, inhibition of GM-CSF induced TF-1 proliferation (32 pM GM-CSF) (human GM-CSF I117 [3]) [pM] | Binder | also measured
4 | binds | 1 | 9.5 | 77 | 18 | 1.8 | 15 | 3 | 54 | 1.6 | 6.7 | 18 | MSB0010599 4K21 (4K21 hVH S55R-T62S hVL N28I-H34S-N53R-H93Y) (antibody, V domains shown, IgG) VH: EVQLVESGGGLVQPGGSLRLSCAASGFAFSAYDMSWVRQAPGKRLELVAYISSGGRSFYYPDSVKGRFTISRDNAKNSLYLQMNSLRAEDTAVYYCTRHLGFDYWGQGTLVTVSS VL: DIVMTQSPLSLPVTPGEPASISCRSSQSLVNSIGNTYLSWYLQKPGQSPQLLIYKVSRRFSGVPDRFSGSGSGTDFTLKISRVEAEDVGVYYCSQSTYVPPTFGQGTKVEIK | 
5 |  | 5.8 | 1 | 8 | 172 | 1 | 8 | 3.2 | 96 | 1 | 4.1 | 30 | humanized parental 4K21 hVH hVL + H93Y (MS100305-A) (antibody, V domains shown) VH: EVQLVESGGGLVQPGGSLRLSCAASGFAFSAYDMSWVRQAPGKRLELVAYISSGGSSFYYPDTVKGRFTISRDNAKNSLYLQMNSLRAEDTAVYYCTRHLGFDYWGQGTLVTVSS VL: DIVMTQSPLSLPVTPGEPASISCRSSQSLVNSNGNTYLHWYLQKPGQSPQLLIYKVSNRFSGVPDRFSGSGSGTDFTLKISRVEAEDVGVYYCSQSTYVPPTFGQGTKVEIK | Fold human T117/I117 (IC50, TF-1 proliferation) (human GM-CSF T117 [4]): 3.7 fold; Fold improvement of humanized parental 4K21 (IC50, TF-1 proliferation) (human GM-CSF T117 [4]): 6 fold; IC50, inhibition of GM-CSF induced TF-1 proliferation (32 pM GM-CSF) (human GM-CSF T117 [4]): 154 pM; Fold improvement of humanized parental 4K21 (IC50, TF-1 proliferation) (macaca GM-CSF [5]): 5 fold; Fold macaca/human I117 (IC50, TF-1 proliferation) (macaca GM-CSF [5]): 2.6 fold; IC50, inhibition of GM-CSF induced TF-1 proliferation (32 pM GM-CSF) (macaca GM-CSF [5]): 111 pM; Fold improvement of humanized parental 4K21 (IC50, TF-1 proliferation) (human GM-CSF I117 [6]): 2.3 fold; IC50, inhibition of GM-CSF induced TF-1 proliferation (32 pM GM-CSF) (human GM-CSF I117 [6]): 42 pM
6 | binds | 0.9 | 5.1 | 42 | 34 | 1.2 | 10 | 2.1 | 82 | 0.8 | 3.1 | 39 | MSB0010603 4K21 (4K21 hVH S56V-T62S hVL N28I-H34S-N53R-H93Y) (antibody, V domains shown, IgG) VH: EVQLVESGGGLVQPGGSLRLSCAASGFAFSAYDMSWVRQAPGKRLELVAYISSGGSVFYYPDSVKGRFTISRDNAKNSLYLQMNSLRAEDTAVYYCTRHLGFDYWGQGTLVTVSS VL: DIVMTQSPLSLPVTPGEPASISCRSSQSLVNSIGNTYLSWYLQKPGQSPQLLIYKVSRRFSGVPDRFSGSGSGTDFTLKISRVEAEDVGVYYCSQSTYVPPTFGQGTKVEIK | 
